From patent US20260193366A1 (APOGEE THERAPEUTICS, published 2026)

Key:
human IL-4Rα [1] = molecular target: T1, human IL-4Rα (human, UniProt P24394 26-232); assay: KinExA
T1 construct: also called Hu IL-4Rα; hIL-4Rα
T1 sequence: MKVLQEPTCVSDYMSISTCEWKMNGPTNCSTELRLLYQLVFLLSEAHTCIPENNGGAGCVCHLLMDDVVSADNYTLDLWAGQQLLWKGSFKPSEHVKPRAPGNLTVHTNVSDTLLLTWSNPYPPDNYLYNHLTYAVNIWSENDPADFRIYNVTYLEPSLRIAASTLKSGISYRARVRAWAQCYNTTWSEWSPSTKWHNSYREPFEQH
Protocol: Binding affinity (KD) of exemplary antibodies to human IL-4Rα was determined using the Kinetic Exclusion Assay (KinExA). Briefly, antibody and recombinant human IL-4Rα were equilibrated in solution. […] Samples were incubated for a time period ranging from 3.5 hours to 340 hours, to fully reach equilibrium. Once samples reached equilibrium, azlactone beads previously coated with recombinant human IL-4Rα were used to capture any free antibody from the equilibrated solution. […] The KinExA 4000 instrument was used to capture fluorescent signal and convert to a voltage signal that is directly proportional to the amount of free antibody in all the equilibrated samples, allowing for the determination of the apparent affinity of the antibody.

human IL-4Rα [2] = molecular target: T1, human IL-4Rα; assay: SPR, Carterra LSA;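 note: antibodies captured on an anti-human Fc sensor chip, antigen injected at several concentrations, association and dissociation rates fitted with a 1:1 Langmuir model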
cynomolgus monkey IL-4Rα = molecular target: T2, cynomolgus monkey IL-4Rα (cynomolgus monkey, UniProt P24394 26-231 (human entry), limits assumed); assay: SPR, Carterra LSA;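 note: antibodies captured on an anti-human Fc sensor chip, antigen injected at several concentrations, association and dissociation rates fitted with a 1:1 Langmuir model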
T2 construct: also called Cyno IL-4Rα; cyIL-4Rα
T2 chain: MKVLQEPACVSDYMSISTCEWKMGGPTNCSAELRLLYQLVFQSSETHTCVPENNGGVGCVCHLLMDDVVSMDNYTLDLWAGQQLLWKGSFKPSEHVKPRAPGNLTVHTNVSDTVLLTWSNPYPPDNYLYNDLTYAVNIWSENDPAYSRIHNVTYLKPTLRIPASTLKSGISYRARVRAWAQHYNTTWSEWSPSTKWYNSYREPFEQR

hIL-4Rα on cells [3] = molecular target: T3, hIL-4Rα on cells (human, UniProt P24394 26-825); assay: cell-based or functional assay
T3 sequence: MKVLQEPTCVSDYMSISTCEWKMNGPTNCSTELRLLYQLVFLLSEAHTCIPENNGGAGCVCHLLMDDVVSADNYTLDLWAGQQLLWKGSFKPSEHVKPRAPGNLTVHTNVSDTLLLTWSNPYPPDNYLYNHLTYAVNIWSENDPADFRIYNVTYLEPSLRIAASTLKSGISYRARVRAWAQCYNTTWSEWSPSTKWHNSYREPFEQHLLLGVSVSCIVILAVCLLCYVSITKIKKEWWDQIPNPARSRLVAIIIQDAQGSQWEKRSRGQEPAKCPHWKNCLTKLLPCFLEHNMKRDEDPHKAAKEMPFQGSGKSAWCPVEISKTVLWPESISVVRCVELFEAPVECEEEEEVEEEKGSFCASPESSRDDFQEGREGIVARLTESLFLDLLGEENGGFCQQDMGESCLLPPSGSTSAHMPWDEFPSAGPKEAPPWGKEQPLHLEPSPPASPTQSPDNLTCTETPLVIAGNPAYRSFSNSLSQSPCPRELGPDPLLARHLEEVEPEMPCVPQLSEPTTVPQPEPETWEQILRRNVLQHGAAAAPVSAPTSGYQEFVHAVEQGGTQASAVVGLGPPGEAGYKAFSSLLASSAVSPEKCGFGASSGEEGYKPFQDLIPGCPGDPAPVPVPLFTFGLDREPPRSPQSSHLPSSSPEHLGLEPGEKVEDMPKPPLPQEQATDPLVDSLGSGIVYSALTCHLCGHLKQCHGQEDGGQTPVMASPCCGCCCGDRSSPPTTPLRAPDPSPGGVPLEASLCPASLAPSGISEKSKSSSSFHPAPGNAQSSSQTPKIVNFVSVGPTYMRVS

hIL-4Rα on cells [4] = molecular target: T3, hIL-4Rα on cells; assay: cell-based or functional assay; remark: listed apart in the source
hIL-4Rα on cells [5] = molecular target: T3, hIL-4Rα on cells; assay: cell-based or functional assay; remark: listed apart in the source
hIL-4Rα on cells [6] = molecular target: T3, hIL-4Rα on cells; assay: FACS on HEK293 cells, competitor biotin-hIL-4;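 for Relative Blockade of IL-4 Binding IC50: HEK293 cells stably co-expressing hIL-13Rα and hIL-4Rα, stained for 1 h at 4 °C, read-out as mean fluorescence intensity by flow cytometry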
hIL-4Rα on cells [7] = molecular target: T3, hIL-4Rα on cells; assay: FACS on HEK293 cells, competitor biotin-hIL-13;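 for Relative Blockade of IL-13 Binding IC50: stably transduced cells co-expressing both receptor chains, stained cold, with cell-bound signal read as mean fluorescence intensity by flow cytometry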
Protocol: (§1) Briefly, HEK293 previously transduced to stably express both hIL-13Rα and hIL-4Rα were cultured and harvested. Cells were seeded at 200,000 cells in 100 uL per well. Cells were washed and the supernatant discarded. […] The cells were stained in this mixture at 4° C. for 1 hour. […] Cells were incubated 4° C. for 1 hour, protected from light. Cells were then washed and the MFI of cells in each well were recorded by FACS using a BD FACSCanto II. Subsequent data were analyzed using GraphPad Prism.

hIL-4Rα on cells [8] = molecular target: T3, hIL-4Rα on cells; assay: cell-based or functional assay; remark: listed apart in the source
hIL-4Rα on cells [9] = molecular target: T3, hIL-4Rα on cells; assay: cell-based or functional assay; remark: listed apart in the source
hIL-4Rα on cells [10] = molecular target: T3, hIL-4Rα on cells; assay: cell-based or functional assay; remark: listed apart in the source
hIL-4Rα on cells [11] = molecular target: T3, hIL-4Rα on cells; assay: FACS on HEK293 cells, competitor biotin-hIL-4; remark: listed apart in the source;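 for Relative Blockade of IL-4 Binding IC50: HEK293 cells stably co-expressing hIL-13Rα and hIL-4Rα, stained for 1 h at 4 °C, read-out as mean fluorescence intensity by flow cytometry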
Protocol: as §1
(§2) The values reflect absolute IC₅₀ measurements.

hIL-4Rα on cells [12] = molecular target: T3, hIL-4Rα on cells; assay: FACS on HEK293 cells, competitor biotin-hIL-13; remark: listed apart in the source;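 for Relative Blockade of IL-13 Binding IC50: stably transduced cells co-expressing both receptor chains, stained cold, with cell-bound signal read as mean fluorescence intensity by flow cytometry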
Protocol: as §1, §2

Binder	KD Relative to Dupilumab (human IL-4Rα [1])	Kd (human IL-4Rα [1]) [pM]	KD Relative to Dupilumab (human IL-4Rα [2])	Kd (human IL-4Rα [2]) [pM]	KD Relative to Dupilumab (cynomolgus monkey IL-4Rα)	Kd (cynomolgus monkey IL-4Rα) [nM]	Relative Inhibition of IL-4 induced pSTAT6 IC50 (hIL-4Rα on cells [3])	Relative Inhibition of IL-13 induced pSTAT6 IC50 (hIL-4Rα on cells [3])	Relative Inhibition of IL-4 induced TARC IC50 (hIL-4Rα on cells [4])	Relative Inhibition of IL-13 induced TARC IC50 (hIL-4Rα on cells [4])	Relative Inhibition of IL-4 induced TF-1 Proliferation IC50 (hIL-4Rα on cells [5])	Relative Inhibition of IL-13 induced TF-1 Proliferation IC50 (hIL-4Rα on cells [5])	Relative Blockade of IL-4 Binding IC50 (hIL-4Rα on cells [6])	Relative Blockade of IL-13 Binding IC50 (hIL-4Rα on cells [7])	further results
Construct 13 (mAb422) (antibody, IgG4, V domains shown, VH/VL only) VH: EVQLVESGGGLEQPGGSLRLSCAGSGFTFRDFAMTWVRQAPGKGLEWVSSVSGSGGNTYYADSVKGRFTISRDNSKNTLYLQMNSLRAEDTAVYYCAKDRLSVTVRPRYYGLDVWGQGTTVTVSS VL: DIVMTQSPLSLPVTPGEPASISCRSSQSVLYSIGYNYVDWYLQKSGQSPQLLIYLGNKRASGVPDRFSGSGSGTDFTLKISRVEAEDVGFYYCMQSLTSPYTFGQGTKLEIK	0.267	0.299	0.65	7.37	0.02	12.6	0.415 relative to dupilumab	0.824 relative to dupilumab	0.507 relative to dupilumab	1.01 relative to dupilumab	0.675 relative to dupilumab	0.794 relative to dupilumab	1.02 relative to dupilumab	0.882 relative to dupilumab	
Construct 32 (mAb446) (antibody, IgG4, V domains shown, VH/VL only) VH: EVQLVESGGGLEQPGGSLRLSCAGSGFTFRDFAMTWVRQAPGKGLEWVSSVSGDGGNTYYADSVKGRFTISRDNSKNTLYLQMNSLRAEDTAVYYCAKDRLSVTVRPRYYGLDVWGQGTTVTVSS VL: DIVMTQSPLSLPVTPGEPASISCRSSQSLLYSNGYNYLDWYLQKSGQSPQLLIYLSSNRASGVPDRFSGSGSGTDFTLKISRVEAEDVGFYYCMQAFQAPYTFGQGTKLEIK			1.04	11.8	1.58	993	1.68 relative to dupilumab	4.76 relative to dupilumab	4.36 relative to dupilumab	2.4 relative to dupilumab	1.74 relative to dupilumab	2.01 relative to dupilumab	1.36 relative to dupilumab	1.14 relative to dupilumab	
Construct 38 (mAb471) with IgG1 YTE LALA heavy chain constant region (antibody, V domains shown) VH: EVQLVESGGGLEQPGGSLRLSCAGSGFTFRDFAMTWVRQAPGKGLEWVSSISGSGGNIYYADSVKGRFTISRDNSKNTLYLQMNSLRAEDTAVYYCAKDRLSVTVRPRYYGLDVWGQGTTVTVSS VL: DIVMTQSPLSLPVTPGEPASISCRSSQSLLYSIGKNYVDWYLQKSGQSPQLLIYEGNKRASGVPDRFSGSGSGTDFTLKISRVEAEDVGFYYCMQSLTSPYTFGQGTKLEIK															Inhibition of IL-4 induced pSTAT6 IC50 (hIL-4Rα on cells [8]): 0.248 nM; Inhibition of IL-13 induced pSTAT6 IC50 (hIL-4Rα on cells [8]): 1.05 nM; Inhibition of IL-4 induced TARC IC50 (hIL-4Rα on cells [9]): 0.259 nM; Inhibition of IL-13 induced TARC IC50 (hIL-4Rα on cells [9]): 0.527 nM; Inhibition of IL-4 induced TF-1 Proliferation IC50 (hIL-4Rα on cells [10]): 0.052 nM; Inhibition of IL-13 induced TF-1 Proliferation IC50 (hIL-4Rα on cells [10]): 0.161 nM; IC50 (hIL-4Rα on cells [11]): 0.271 nM; IC50 (hIL-4Rα on cells [12]): 0.226 nM
Construct 31 (mAb443) (antibody, IgG4, V domains shown, VH/VL only) VH: EVQLVESGGGLEQPGGSLRLSCAGSGFTFRDFAMTWVRQAPGKGLEWVSSISGSGGNIYYADSVKGRFTISRDNSKNTLYLQMNSLRAEDTAVYYCAKDRLSVTVRPRYYGLDVWGQGTTVTVSS VL: DIVMTQSPLSLPVTPGEPASISCRSSQSLLYSNGYNYLDWYLQKSGQSPQLLIYLGSNRASGVPDRFSGSGSGTDFTLKISRVEAEDVGFYYCMQALQAPYTFGQGTKLEIK	0.252	0.282	0.73	8.29	0.67	421	1.23 relative to dupilumab	1.61 relative to dupilumab	1.37 relative to dupilumab	0.703 relative to dupilumab	1.25 relative to dupilumab	1.24 relative to dupilumab	1.01 relative to dupilumab	0.964 relative to dupilumab	
Construct 38 (mAb471) (antibody, IgG4, V domains shown, VH/VL only) VH: EVQLVESGGGLEQPGGSLRLSCAGSGFTFRDFAMTWVRQAPGKGLEWVSSISGSGGNIYYADSVKGRFTISRDNSKNTLYLQMNSLRAEDTAVYYCAKDRLSVTVRPRYYGLDVWGQGTTVTVSS VL: DIVMTQSPLSLPVTPGEPASISCRSSQSLLYSIGKNYVDWYLQKSGQSPQLLIYEGNKRASGVPDRFSGSGSGTDFTLKISRVEAEDVGFYYCMQSLTSPYTFGQGTKLEIK	0.376	0.421	0.52	5.89	0.4	249	0.723 relative to dupilumab	1.56 relative to dupilumab	1.17 relative to dupilumab	1.63 relative to dupilumab	1.04 relative to dupilumab	1.2 relative to dupilumab	0.981 relative to dupilumab	0.996 relative to dupilumab	
Construct 24 (mAb432) (antibody, IgG4, V domains shown, VH/VL only) VH: EVQLVESGGGLEQPGGSLRLSCAGSGFTFRDFAMTWVRQAPGKGLEWVSSISGSGGNIYYADSVKGRFTISRDNSKNTLYLQMNSLRAEDTAVYYCAKDRLSIAVRPRYYGLDVWGQGTTVTVSS VL: DIVMTQSPLSLPVTPGEPASISCTASQSLLYSIGKNYVDWYLQKSGQSPQLLIYLGNNRATGVPDRFSGSGSGTDFTLKISRVEAEDVGFYYCMQSLTSPYTFGQGTKLEIK	0.105	0.118	0.79	8.91	0.11	66.9	0.629 relative to dupilumab	0.586 relative to dupilumab	0.445 relative to dupilumab	0.594 relative to dupilumab	1.03 relative to dupilumab	0.693 relative to dupilumab	0.973 relative to dupilumab	0.825 relative to dupilumab	
Construct 15 (mAb423) (antibody, IgG4, V domains shown, VH/VL only) VH: EVQLVESGGGLEQPGGSLRLSCAGSGFTFRDFAMTWVRQAPGKGLEWVSSISGSGGNIYYADSVKGRFTISRDNSKNTLYLQMNSLRAEDTAVYYCAKDRLSKTIRPRYYGLDVWGQGTTVTVSS VL: DIVMTQSPLSLPVTPGEPASISCTASQSLLYSIGYNYVDWYLQKSGQSPQLLIYLGNKRASGVPDRFSGSGSGTDFTLKISRVEAEDVGFYYCMQSLTSPYTFGQGTKLEIK	0.01	0.0109	1.21	13.7	0.04	24.6	0.285 relative to dupilumab	0.468 relative to dupilumab	0.453 relative to dupilumab	0.35 relative to dupilumab	0.281 relative to dupilumab	0.71 relative to dupilumab	0.66 relative to dupilumab	0.876 relative to dupilumab	
